Assay results: US9512196B2, “Short-form human MD-2 as a negative regulator of toll-like receptor 4 signaling” (Cedars-Sinai Medical Center, priority 2008, dated 2016)
Each block holds one molecule with its values, some of them ahead of it.

Legend:
[1] = target: T1, MD-2 (Homo sapiens, UniProt Q9Y6Y9); assay: Co-immunoprecipitation with Flag-tagged wild-type MD-2 in HEK293 cells; type: binding; conditions: Myc-tagged protein with Flag-tagged MD-2, co-immunoprecipitation
T1 construct: expressed in transfected cells; host or cells: HEK293
T1 sequence (Q9Y6Y9 19-160): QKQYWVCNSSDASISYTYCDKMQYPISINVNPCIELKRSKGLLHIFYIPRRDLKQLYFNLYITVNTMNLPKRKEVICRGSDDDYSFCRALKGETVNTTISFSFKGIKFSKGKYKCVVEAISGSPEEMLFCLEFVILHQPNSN
Protocol: (A) HEK293 cells were transiently transfected with plasmids encoding for Flag-tagged MD-2 (lanes 1-4) in combination with either a Myc-tagged MD-2 (lanes 1 and 3) or a Myc-tagged MD-2s (lanes 2 and 4) expressing plasmid. Co-immunoprecipitation experiments were then performed using an anti-Flag antibody (lanes 3-4) or an IgG isotype control antibody (lane 1-2). Samples were fractionated by SDS-PAGE and immunoblotting with an anti-Myc antibody was performed. (B) Structural analysis of MD-2. Structural features representing the TLR4 binding sites (red); the ligand contacts (dark blue); the ligand binding pocket (light blue) and the TLR4 secondary contacts (pink) are illustrated. The residues deleted in MD-2s (yellow) are also shown. (C) HEK293 cells were transiently transfected with plasmids encoding for Myc-tagged MD-2 (lanes 3 and 4) or a Myc-tagged MD-2s (lanes 5 and 6) expressing plasmid and treated with LPS-biotin as indicated. Co-immunoprecipitation experiments were then performed using an anti-Myc antibody. […]
HEK 293 cells were seeded into 100 mm dishes (1.5×10^6) 24 h prior to transfection. […] For immunoblotting, primary antibodies were detected using horseradish peroxidase-conjugated secondary antibodies, followed by enhanced chemiluminescence (Amersham Biosciences). […]

[2] = Biotin-LPS binding, immunoprecipitation from culture supernatants; conditions: culture supernatants incubated with biotin-LPS, anti-Myc immunoprecipitation
Protocol: (A) HEK293 cells were transiently transfected with plasmids encoding for Flag-tagged MD-2 (lanes 1-4) in combination with either a Myc-tagged MD-2 (lanes 1 and 3) or a Myc-tagged MD-2s (lanes 2 and 4) expressing plasmid. Co-immunoprecipitation experiments were then performed using an anti-Flag antibody (lanes 3-4) or an IgG isotype control antibody (lane 1-2). Samples were fractionated by SDS-PAGE and immunoblotting with an anti-Myc antibody was performed. (B) Structural analysis of MD-2. Structural features representing the TLR4 binding sites (red); the ligand contacts (dark blue); the ligand binding pocket (light blue) and the TLR4 secondary contacts (pink) are illustrated. The residues deleted in MD-2s (yellow) are also shown. (C) HEK293 cells were transiently transfected with plasmids encoding for Myc-tagged MD-2 (lanes 3 and 4) or a Myc-tagged MD-2s (lanes 5 and 6) expressing plasmid and treated with LPS-biotin as indicated. Co-immunoprecipitation experiments were then performed using an anti-Myc antibody. Samples were fractionated by SDS-PAGE and immunoblotting with an anti-biotin (upper panel) and anti-Myc antibody (lower panel) were performed.
To address this possibility, HEK293 cells were transiently transfected with plasmids encoding either MD-2 or MD-2s. Culture supernatants were then incubated with biotin-LPS and Myc-tagged proteins were immunoprecipitated.

[3] = system: TLR4-expressing cells; assay: Surface staining of TLR4-mCitrine HEK293T cells (flow cytometry, confocal imaging); type: cell-based, human; conditions: myc-tagged protein transfected into TLR4-mCitrine HEK293T cells
Excerpt: HEK293T cells stably expressing fluorescent TLR4-mCitrine were transiently transfected with myc-tagged wild-type MD-2 or MD-2s and surface-stained with anti-myc antibody. (a) Cells analyzed by flow cytometry were gated to select single cells and the TLR4-positive population. Anti-myc staining of TLR4-mCitrine positive cells expressing MD-2 (top panel, thick line) or MD-2s (middle panel, thick line) and untransfected cells (thin line) is shown. […] Co-localization of TLR4 and MD-2 isoforms on the cell surface is visualized in yellow.
HEK293T cells were retrovirally transduced to generate a cell line stably expressing TLR4-mCitrine. TLR4-mCitrine cells in 12-well dishes were transfected with 300 ng of plasmid encoding myc-tagged MD2 or MD2S using GeneJuice lipofection reagent (Novagen) and cultured overnight. Cells were dislodged by scraping, washed once with cold PBS and incubated with a 1:50 dilution of anti-myc Alexa 647-conjugated antibody (AbD Serotec) at 4° C. for 30 minutes. Cells were washed four times with PBS for and fluorescence was assessed with an LSR II flow cytometer (BD Biosciences) running FACS Diva software (BD Biosciences). Data was processed using FlowJo software v8.6.3 (Tree Star).
TLR4-mCitrine cells were cultured on glass-bottom confocal dishes (MatTek) coated with collagen. […]

Interaction with wild-type MD-2 [1]: can homodimerise
Binding of secreted protein to LPS [2]: bound readily to LPS
Molecule: MD-2: full-length human wild-type MD-2, co-receptor of TLR4 [reference compound]
Binding to the surface of TLR4-expressing cells [3]: bind to the surface of TLR4-expressing cells

B1: MD-2s: alternatively spliced isoform of human MD-2 lacking exon 2, with D38G substitution; expressed and secreted protein sequences in Table 1 (protein, listed as Homo sapiens)
chain 1: MLPFLFFSTLFSSIFTEAQKQYWVCNSSDASISYTYCGRDLKQLYFNLYITVNTMNLPKRKEVICRGSDDDYSFCRALKGETVNTTISFSFKGIKFSKGKYKCVVEAISGSPEEMLFCLEFVILHQPNSN
chain 2: EAQKQYWVCNSSDASISYTYCGRDLKQLYFNLYITVNTMNLPKRKEVICRGSDDDYSFCRALKGETVNTTISFSFKGIKFSKGKYKCVVEAISGSPEEMLFCLEFVILHQPNSN
Interaction with wild-type MD-2 [1]: associates with wild-type MD-2
Binding of secreted protein to LPS [2]: interaction between secreted MD-2s and LPS was also detected
Binding to the surface of TLR4-expressing cells [3]: bind to the surface of TLR4-expressing cells
